Measured values reported in the supplement of paper PMC5998384.

Tests used:
[1] = tested on: HeLa Kyoto; experiment: thermal stability score vs G1/S (z-score of summed log2 fold changes over temperatures); higher = more thermally stable than in G1/S
[2] = tested on: HeLa Kyoto; experiment: solubility in G1/S (NP-40 vs SDS abundance) (log2 ratio); higher = more soluble; conditions: cell cycle stage: G1/S
[3] = tested on: HeLa Kyoto; experiment: melting temperature (median over replicates), in situ; higher = more thermally stable
[4] = tested on: HeLa Kyoto; experiment: solubility change mitosis vs G1/S (difference of NP-40 vs SDS log2 ratios) (log2 ratio difference); higher = more soluble in mitosis
[5] = cell cycle stage: early G1 (4.5 h after nocodazole release)
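Wherever melting temperature (median over replicates), in situ is given: HeLa Kyoto cells synchronized by double thymidine or nocodazole block, proteins quantified by TMT10plex mass spectrometry, three independent biological replicates.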
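Wherever solubility change mitosis vs G1/S (difference of NP-40 vs SDS log2 ratios) is given: synchronized HeLa Kyoto cells (double thymidine block for G1/S, nocodazole release for mitosis), protein amounts in NP-40 versus SDS lysates quantified by mass spectrometry, three biological replicates.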
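Wherever solubility in G1/S (NP-40 vs SDS abundance) is given: HeLa Kyoto cells arrested at G1/S by double thymidine block, proteins quantified by TMT10plex mass spectrometry in mild NP-40 versus SDS extracts, three biological replicates.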
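Wherever thermal stability score vs G1/S (z-score of summed log2 fold changes over temperatures) is given: synchronized HeLa Kyoto cells, proteins quantified by TMT10plex mass spectrometry, three biological replicates, mitosis taken 0.5 h after nocodazole release, G1/S directly after double thymidine block.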

DBNL, sequence (chain, as listed by the source): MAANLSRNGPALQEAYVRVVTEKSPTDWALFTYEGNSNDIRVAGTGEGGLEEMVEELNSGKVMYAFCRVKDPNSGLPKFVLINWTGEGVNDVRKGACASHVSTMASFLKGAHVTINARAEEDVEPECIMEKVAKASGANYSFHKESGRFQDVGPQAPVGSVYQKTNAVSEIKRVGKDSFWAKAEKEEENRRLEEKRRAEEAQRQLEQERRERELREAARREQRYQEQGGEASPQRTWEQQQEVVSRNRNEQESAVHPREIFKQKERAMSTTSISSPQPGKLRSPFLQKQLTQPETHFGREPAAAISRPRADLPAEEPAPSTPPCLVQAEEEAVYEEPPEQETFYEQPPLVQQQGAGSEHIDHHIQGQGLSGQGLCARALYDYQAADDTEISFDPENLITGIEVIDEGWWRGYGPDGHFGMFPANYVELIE
WNK1, sequence (chain, as listed by the source): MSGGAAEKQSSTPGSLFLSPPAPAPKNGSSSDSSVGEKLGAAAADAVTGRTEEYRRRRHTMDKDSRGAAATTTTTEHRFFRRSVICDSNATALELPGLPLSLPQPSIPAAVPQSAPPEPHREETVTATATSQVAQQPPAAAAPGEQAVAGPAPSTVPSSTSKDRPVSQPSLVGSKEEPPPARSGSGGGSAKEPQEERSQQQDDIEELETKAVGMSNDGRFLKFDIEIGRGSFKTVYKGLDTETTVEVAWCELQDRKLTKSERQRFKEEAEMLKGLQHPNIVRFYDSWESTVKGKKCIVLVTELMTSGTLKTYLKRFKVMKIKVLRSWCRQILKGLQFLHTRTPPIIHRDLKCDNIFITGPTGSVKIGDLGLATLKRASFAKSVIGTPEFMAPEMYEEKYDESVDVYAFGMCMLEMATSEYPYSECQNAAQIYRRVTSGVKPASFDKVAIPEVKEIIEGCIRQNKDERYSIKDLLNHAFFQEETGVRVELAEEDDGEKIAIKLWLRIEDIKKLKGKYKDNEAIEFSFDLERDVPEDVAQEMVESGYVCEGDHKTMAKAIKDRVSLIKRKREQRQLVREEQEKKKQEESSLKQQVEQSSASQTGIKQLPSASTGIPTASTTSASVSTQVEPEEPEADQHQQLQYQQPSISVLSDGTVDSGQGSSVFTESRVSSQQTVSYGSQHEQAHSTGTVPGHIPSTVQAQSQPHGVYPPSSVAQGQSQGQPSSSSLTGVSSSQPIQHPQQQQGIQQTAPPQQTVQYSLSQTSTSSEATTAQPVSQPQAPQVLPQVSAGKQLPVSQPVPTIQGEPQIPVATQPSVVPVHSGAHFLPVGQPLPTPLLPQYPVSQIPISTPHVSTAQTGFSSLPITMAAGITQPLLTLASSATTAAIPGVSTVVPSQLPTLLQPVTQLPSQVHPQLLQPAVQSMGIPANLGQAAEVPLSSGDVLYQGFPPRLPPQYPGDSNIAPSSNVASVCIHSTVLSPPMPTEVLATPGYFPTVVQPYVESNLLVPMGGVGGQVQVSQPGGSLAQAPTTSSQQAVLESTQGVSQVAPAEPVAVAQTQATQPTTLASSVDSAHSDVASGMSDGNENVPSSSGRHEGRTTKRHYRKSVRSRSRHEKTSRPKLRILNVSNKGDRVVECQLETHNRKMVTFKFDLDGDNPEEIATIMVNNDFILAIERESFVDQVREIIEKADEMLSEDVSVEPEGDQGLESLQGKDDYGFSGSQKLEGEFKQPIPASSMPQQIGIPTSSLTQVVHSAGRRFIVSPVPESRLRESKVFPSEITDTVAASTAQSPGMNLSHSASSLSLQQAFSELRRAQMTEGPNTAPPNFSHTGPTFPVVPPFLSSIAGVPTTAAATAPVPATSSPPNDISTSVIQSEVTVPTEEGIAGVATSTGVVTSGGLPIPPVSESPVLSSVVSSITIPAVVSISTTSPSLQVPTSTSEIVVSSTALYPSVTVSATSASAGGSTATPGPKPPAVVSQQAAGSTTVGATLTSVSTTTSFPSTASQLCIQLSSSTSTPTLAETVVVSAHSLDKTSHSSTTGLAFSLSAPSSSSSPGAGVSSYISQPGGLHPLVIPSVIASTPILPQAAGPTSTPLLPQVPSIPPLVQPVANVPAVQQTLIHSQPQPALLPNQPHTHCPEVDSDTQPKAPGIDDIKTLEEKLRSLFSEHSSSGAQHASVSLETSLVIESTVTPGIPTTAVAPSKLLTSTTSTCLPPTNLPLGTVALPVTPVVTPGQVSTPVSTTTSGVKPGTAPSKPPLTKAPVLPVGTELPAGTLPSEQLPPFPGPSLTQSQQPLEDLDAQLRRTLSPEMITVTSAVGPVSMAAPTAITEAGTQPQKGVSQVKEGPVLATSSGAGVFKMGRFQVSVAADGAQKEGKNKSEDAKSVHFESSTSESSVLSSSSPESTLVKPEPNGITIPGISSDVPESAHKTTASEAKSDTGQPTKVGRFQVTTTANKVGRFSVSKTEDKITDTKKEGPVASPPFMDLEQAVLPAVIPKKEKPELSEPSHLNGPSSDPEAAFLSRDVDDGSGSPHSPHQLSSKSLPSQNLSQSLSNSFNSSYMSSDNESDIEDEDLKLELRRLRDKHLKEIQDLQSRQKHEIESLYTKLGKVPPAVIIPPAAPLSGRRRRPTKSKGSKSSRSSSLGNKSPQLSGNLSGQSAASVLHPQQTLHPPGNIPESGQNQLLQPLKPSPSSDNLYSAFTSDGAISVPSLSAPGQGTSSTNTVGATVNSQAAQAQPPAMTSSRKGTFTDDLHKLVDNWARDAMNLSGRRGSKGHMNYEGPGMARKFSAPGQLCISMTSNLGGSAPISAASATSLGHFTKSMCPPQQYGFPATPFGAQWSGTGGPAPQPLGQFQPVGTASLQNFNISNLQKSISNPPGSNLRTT

Substance | thermal stability score [1, 5] | thermal stability score ([1]; cell cycle stage: mitosis) | solubility in G1/S (log2) [2] | melting temperature ([3]; cell cycle stage: G1/S) [°C] | melting temperature ([3]; cell cycle stage: mitosis) [°C] | solubility change mitosis (log2) [4]
MASGRDERPPWRLGRLLLLMCLLLLGSSARAAHIKKAEATTTTTSAGAEAAEGQFDRYYHEEELESALREAAAAGLPGLARLFSIGRSVEGRPLWVLRLTAGLGSLIPEGDAGPDAAGPDAAGPLLPGRPQVKLVGNMHGDETVSRQVLIYLARELAAGYRRGDPRLVRLLNTTDVYLLPSLNPDGFERAREGDCGFGDGGPSGASGRDNSRGRDLNRSFPDQFSTGEPPALDEVPEVRALIEWIRRNKFVLSGNLHGGSVVASYPFDDSPEHKATGIYSKTSDDEVFKYLAKAYASNHPIMKTGEPHCPGDEDETFKDGITNGAHWYDVEGGMQDYNYVWANCFEITLELSCCKYPPASQLRQEWENNRESLITLIEKVHIGVKGFVKDSITGSGLENATISVAGINHNITTGRFGDFYRLLVPGTYNLTVVLTGYMPLTVTNVVVKEGPATEVDFSLRPTVTSVIPDTTEAVSTASTVAIPNILSGTSSSYQPIQPKDFHHHHFPDMEIFLRRFANEYPNITRLYSLGKSVESRELYVMEISDNPGVHEPGEPEFKYIGNMHGNEVVGRELLLNLIEYLCKNFGTDPEVTDLVHNTRIHLMPSMNPDGYEKSQEGDSISVIGRNNSNNFDLNRNFPDQFVQITDPTQPETIAVMSWMKSYPFVLSANLHGGSLVVNYPFDDDEQGLATYSKSPDDAVFQQIALSYSKENSQMFQGRPCKNMYPNEYFPHGITNGASWYNVPGGMQDWNYLQTNCFEVTIELGCVKYPLEKELPNFWEQNRRSLIQFMKQVHQGVRGFVLDATDGRGILNATISVAEINHPVTTYKTGDYWRLLVPGTYKITASARGYNPVTKNVTVKSEGAIQVNFTLVRSSTDSNNESKKGKGASSSTNDASDPTTKEFETLIKDLSAENGLESLMLRSSSNLALALYRYHSYKDLSEFLRGLVMNYPHITNLTNLGQSTEYRHIWSLEISNKPNVSEPEEPKIRFVAGIHGNAPVGTELLLALAEFLCLNYKKNPAVTQLVDRTRIVIVPSLNPDGRERAQEKDCTSKIGQTNARGKDLDTDFTNNASQPETKAIIENLIQKQDFSLSVALDGGSMLVTYPYDKPVQTVENKETLKHLASLYANNHPSMHMGQPSCPNKSDENIPGGVMRGAEWHSHLGSMKDYSVTYGHCPEITVYTSCCYFPSAARLPSLWADNKRSLLSMLVEVHKGVHGFVKDKTGKPISKAVIVLNEGIKVQTKEGGYFHVLLAPGVHNIIAIADGYQQQHSQVFVHHDAASSVVIVFDTDNRIFGLPRELVVTVSGATMSALILTACIIWCICSIKSNRHKDGFHRLRQHHDEYEDEIRMMSTGSKKSLLSHEFQDETDTEEETLYSSKH [CPD] | -2.91 | -3.88 | 0.211 | 55.5 | 53.8 | -0.0862
MVCGGFACSKNCLCALNLLYTLVSLLLIGIAAWGIGFGLISSLRVVGVVIAVGIFLFLIALVGLIGAVKHHQVLLFFYMIILLLVFIVQFSVSCACLALNQEQQGQLLEVGWNNTASARNDIQRNLNCCGFRSVNPNDTCLASCVKSDHSCSPCAPIIGEYAGEVLRFVGGIGLFFSFTEILGVWLTYRYRNQKDPRANPSAFL [TSPAN13] | -0.55 | -1.07 | 0.0697 | 57.7 | 57.6 | -0.273
DBNL | -0.295 | -0.854 | 0.177 | 49.5 | 50.5 | -0.0864
MAAIPPDSWQPPNVYLETSMGIIVLELYWKHAPKTCKNFAELARRGYYNGTKFHRIIKDFMIQGGDPTGTGRGGASIYGKQFEDELHPDLKFTGAGILAMANAGPDTNGSQFFVTLAPTQWLDGKHTIFGRVCQGIGMVNRVGMVETNSQDRPVDDVKIIKAYPSG [PPIL1] | -0.554 | -0.941 | 0.351 | 49.1 | 50.1 | 0.414
MPRAPAPLYACLLGLCALLPRLAGLNICTSGSATSCEECLLIHPKCAWCSKEDFGSPRSITSRCDLRANLVKNGCGGEIESPASSFHVLRSLPLSSKGSGSAGWDVIQMTPQEIAVNLRPGDKTTFQLQVRQVEDYPVDLYYLMDLSLSMKDDLDNIRSLGTKLAEEMRKLTSNFRLGFGSFVDKDISPFSYTAPRYQTNPCIGYKLFPNCVPSFGFRHLLPLTDRVDSFNEEVRKQRVSRNRDAPEGGFDAVLQAAVCKEKIGWRKDALHLLVFTTDDVPHIALDGKLGGLVQPHDGQCHLNEANEYTASNQMDYPSLALLGEKLAENNINLIFAVTKNHYMLYKNFTALIPGTTVEILDGDSKNIIQLIINAYNSIRSKVELSVWDQPEDLNLFFTATCQDGVSYPGQRKCEGLKIGDTASFEVSLEARSCPSRHTEHVFALRPVGFRDSLEVGVTYNCTCGCSVGLEPNSARCNGSGTYVCGLCECSPGYLGTRCECQDGENQSVYQNLCREAEGKPLCSGRGDCSCNQCSCFESEFGKIYGPFCECDNFSCARNKGVLCSGHGECHCGECKCHAGYIGDNCNCSTDISTCRGRDGQICSERGHCLCGQCQCTEPGAFGEMCEKCPTCPDACSTKRDCVECLLLHSGKPDNQTCHSLCRDEVITWVDTIVKDDQEAVLCFYKTAKDCVMMFTYVELPSGKSNLTVLREPECGNTPNAMTILLAVVGSILLVGLALLAIWKLLVTIHDRREFAKFQSERSRARYEMASNPLYRKPISTHTVDFTFNKFNKSYNGTVD [ITGB5] | 0.876 | 3.15 | -0.15 | 56 | 56.7 | 0.0246
MSEKENNFPPLPKFIPVKPCFYQNFSDEIPVEHQVLVKRIYRLWMFYCATLGVNLIACLAWWIGGGSGTNFGLAFVWLLLFTPCGYVCWFRPVYKAFRADSSFNFMAFFFIFGAQFVLTVIQAIGFSGWGACGWLSAIGFFQYSPGAAVVMLLPAIMFSVSAAMMAIAIMKVHRIYRGAGGSFQKAQTEWNTGTWRNPPSREAQYNNFSGNSLPEYPTVPSYPGSGQWP [SCAMP4] | -1.67 | -2.1 | -0.117 | 57 | 60.3 | 0.144
MAGAIIENMSTKKLCIVGGILLVFQIIAFLVGGLIAPGPTTAVSYMSVKCVDARKNHHKTKWFVPWGPNHCDKIRDIEEAIPREIEANDIVFSVHIPLPHMEMSPWFQFMLFILQLDIAFKLNNQIRENAEVSMDVSLAYRDDAFAEWTEMAHERVPRKLKCTFTSPKTPEHEGRYYECDVLPFMEIGSVAHKFYLLNIRLPVNEKKKINVGIGEIKDIRLVGIHQNGGFTKVWFAMKTFLTPSIFIIMVWYWRRITMMSRPPVLLEKVIFALGISMTFINIPVEWFSIGFDWTWMLLFGDIRQGIFYAMLLSFWIIFCGEHMMDQHERNHIAGYWKQVGPIAVGSFCLFIFDMCERGVQLTNPFYSIWTTDIGTELAMAFIIVAGICLCLYFLFLCFMVFQVFRNISGKQSSLPAMSKVRRLHYEGLIFRFKFLMLITLACAAMTVIFFIVSQVTEGHWKWGGVTVQVNSAFFTGIYGMWNLYVFALMFLYAPSHKNYGEDQSNGDLGVHSGEELQLTTTITHVDGPTEIYKLTRKEAQE [WLS] | 0.834 | 2.64 | -0.178 | 54.2 | 54.2 | -0.236
MAAPAPGLISVFSSSQELGAALAQLVAQRAACCLAGARARFALGLSGGSLVSMLARELPAAVAPAGPASLARWTLGFCDERLVPFDHAESTYGLYRTHLLSRLPIPESQVITINPELPVEEAAEDYAKKLRQAFQGDSIPVFDLLILGVGPDGHTCSLFPDHPLLQEREKIVAPISDSPKPPPQRVTLTLPVLNAARTVIFVATGEGKAAVLKRILEDQEENPLPAALVQPHTGKLCWFLDEAAARLLTVPFEKHSTL [PGLS] | -2.51 | -2.63 | 0.254 | 54.8 | 55.2 | 0.237
MERAAPSRRVPLPLLLLGGLALLAAGVDADVLLEACCADGHRMATHQKDCSLPYATESKECRMVQEQCCHSQLEELHCATGISLANEQDRCATPHGDNASLEATFVKRCCHCCLLGRAAQAQGQSCEYSLMVGYQCGQVFQACCVKSQETGDLDVGGLQETDKIIEVEEEQEDPYLNDRCRGGGPCKQQCRDTGDEVVCSCFVGYQLLSDGVSCEDVNECITGSHSCRLGESCINTVGSFRCQRDSSCGTGYELTEDNSCKDIDECESGIHNCLPDFICQNTLGSFRCRPKLQCKSGFIQDALGNCIDINECLSISAPCPIGHTCINTEGSYTCQKNVPNCGRGYHLNEEGTRCVDVDECAPPAEPCGKGHRCVNSPGSFRCECKTGYYFDGISRMCVDVNECQRYPGRLCGHKCENTLGSYLCSCSVGFRLSVDGRSCEDINECSSSPCSQECANVYGSYQCYCRRGYQLSDVDGVTCEDIDECALPTGGHICSYRCINIPGSFQCSCPSSGYRLAPNGRNCQDIDECVTGIHNCSINETCFNIQGGFRCLAFECPENYRRSAATLQQEKTDTVRCIKSCRPNDVTCVFDPVHTISHTVISLPTFREFTRPEEIIFLRAITPPHPASQANIIFDITEGNLRDSFDIIKRYMDGMTVGVVRQVRPIVGPFHAVLKLEMNYVVGGVVSHRNVVNVHIFVSEYWF [FBLN1] | 1.49 | 0.0681 | -0.102 | 54 | 55.4 | -0.045
AKAP9 | 1.11 | 1.77 | -0.0993 | 49.3 | 49.6 | -0.0345
MGKGDPKKPRGKMSSYAFFVQTCREEHKKKHPDASVNFSEFSKKCSERWKTMSAKEKGKFEDMAKADKARYEREMKTYIPPKGETKKKFKDPNAPKRPPSAFFLFCSEYRPKIKGEHPGLSIGDVAKKLGEMWNNTAADDKQPYEKKAAKLKEKYEKDIAAYRAKGKPDAAKKGVVKAEKSKKKKEEEEDEEDEEDEEEEEDEEDEDEEEDDDDE [HMGB1] | 3.27 | 2.58 | 0.464 | 55.4 | 54.4 | 0.257
WNK1 | 1.74 | 3.55 | 0.0681 | 51.9 | 52.2 | -0.164
MAGLPRRIIKETQRLLAEPVPGIKAEPDESNARYFHVVIAGPQDSPFEGGTFKLELFLPEEYPMAAPKVRFMTKIYHPNVDKLGRICLDILKDKWSPALQIRTVLLSIQALLSAPNPDDPLANDVAEQWKTNEAQAIETARAWTRLYAMNNI [UBE2N] | -0.982 | -0.49 | 0.641 | 52.1 | 52.1 | 0.111
MSLLLLLLLVSYYVGTLGTHTEIKRVAEEKVTLPCHHQLGLPEKDTLDIEWLLTDNEGNQKVVITYSSRHVYNNLTEEQKGRVAFASNFLAGDASLQIEPLKPSDEGRYTCKVKNSGRYVWSHVILKVLVRPSKPKCELEGELTEGSDLTLQCESSSGTEPIVYYWQRIREKEGEDERLPPKSRIDYNHPGRVLLQNLTMSYSGLYQCTAGNEAGKESCVVRVTVQYVQSIGMVAGAVTGIVAGALLIFLLVWLLIRRKDKERYEEEERPNEIREDAEAPKARLVKPSSSSSGSRSSRSGSSSTRSTANSASRSQRTLSTDAAPQPGLATQAYSLVGPEVRGSEPKKVHHANLTKAETTPSMIPSQSRAFQTV [CLMP] | -1.13 | -0.751 | 0.0444 | 55 | 55.4 | -0.0674
MAAMETETAPLTLESLPTDPLLLILSFLDYRDLINCCYVSRRLSQLSSHDPLWRRHCKKYWLISEEEKTQKNQCWKSLFIDTYSDVGRYIDHYAAIKKAWDDLKKYLEPRCPRMVLSLKEGAREEDLDAVEAQIGCKLPDDYRCSYRIHNGQKLVVPGLLGSMALSNHYRSEDLLDVDTAAGGFQQRQGLKYCLPLTFCIHTGLSQYIAVEAAEGRNKNEVFYQCPDQMARNPAAIDMFIIGATFTDWFTSYVKNVVSGGFPIIRDQIFRYVHDPECVATTGDITVSVSTSFLPELSSVHPPHYFFTYRIRIEMSKDALPEKACQLDSRYWRITNAKGDVEEVQGPGVVGEFPIISPGRVYEYTSCTTFSTTSGYMEGYYTFHFLYFKDKIFNVAIPRFHMACPTFRVSIARLEMGPDEYEEMEEEEEEEEEEDEDDDSADMDESDEDDEEERRRRVFDVPIRRRRCSRLF [FBXO3] | 0.236 | 0.497 | -0.00208 | 53.9 | 53.3 | -0.0407
